# Measured values as given in the supplement of paper PMC12636428.
# System: Saccharomyces cerevisiae
# Assay: transcriptional activation domain activity (GFP:mCherry ratio, weighted mean of sorted bins, harmonized to initial dataset scale) (arbitrary fluorescence ratio units); higher = stronger transcriptional activation
# Details: beta-estradiol 1 µM; induction time 4 h
# Procedure, shortened: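 After a 1:5 dilution into SC with 1 uM beta-estradiol and 4 hours at 30 °C, yeast diploids carrying a GFP reporter and URA3-integrated barcoded tiles were sorted into 8 bins by GFP:mCherry ratio. The tiles were fused to an estradiol-inducible synthetic transcription factor. Barcodes were sequenced, tiles below 50 reads were discarded, and activation activity was taken as the read-weighted mean of bin median fluorescence, averaged across barcodes and linearly mapped onto the initial dataset scale.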
row,Sequence,transcriptional activation domain activity
1,GLCYCHSIKLRHLLIPMEKLYLMGLILVQCYNGVLHSMLFGARYEFLPLMLTS,71000
2,MLFIFFVIFFYFFLFSSIFFYHFIFLFSLELSLYFVDLSLELIPIYFPVCILS,46300
3,ERQGRGQREERRREDHSRTRVPQRQGQEQREERRREDQYSRQEQQSQGLGQRK,42100
4,NSWLCGFQGIALMYLVLLLLCFGVLLIANLHFLSVYRSTWLQIHMTPMIVLSF,57400
5,TSIFGSNNNTGGTMFGSNTNTSSPFGGGGTSNTSIFARRFALSLALLRSPTSY,30900
6,PSPFPPSLSPPLFPPFPPLPLCPPFLPLFPPSPLSPPFLPLFPPLFLPLSFPP,50200
7,TACVAIINIKCLFLEMHVWSVLNYAFFFISYGGWWVWTIAQSLIFGHQSIYFV,34700
8,GFVVQQLQKLFLTCIALKLVQRVNSLNKLFKTAVGSLPVILSLLGLWIILFLF,47200
9,MFFLFPFLTFGYPAFNLKLCLLIQSNSYCHSFSSLSLYALLLLYLRLLLILLI,71100
10,SEVKYFWSYYNHVCFLVIPIDDNGLSIFFSCFTGESVEIILSIICVAMTQVLT,35200
11,GWKYIILAACDVEGNFLVVKVGLFSTTILLVMTLRYQAYQYTNLLSCMLLDAW,43000
12,VRSRALLFVFKYYFFLVYFVFYRNLFARLRSFDQFALVQLLSSFWVCIWYPFS,48400
13,MLFIPFCVLFFVWLWGLINYGAFVDPCFLSFYVLLSTLLQLPSSSFLSFFALF,54400
14,MTVDHDFNSEDILFPIESMSSIQYVENNNPNNINNDVIPYSLDIKNTVLDSAD,76400
15,MTNRQRVGHKKSRHGCIRCKARRVKCDEQRPCSNCVRHRTPCSLSQEPLAAAL,45200
16,LLRAYGRCLAPFPELVTQAYTWFRSWGTSEFRPLTVALLLVTYMQRSPEIKAP,70700
17,IVRIVFFPTIFSFFNFFAVWFYQRSWILLPFPELYECFALVAMFYLLVVYVTP,46200
18,MPLVRRLGAGGDRGAGTVRVRVATSSHTPHHLKVVVLSKVPFLLPDIVVDRMQ,12900
19,DFKHPMEPLACNWEDCDFLGDDTCSIVNHINCQHGINFDIQFANPDSFLPGSI,141000
20,AAADAEVDELEDGTADADGAKPKKRKRGGDADGKPKSARKDAPAAAKKKGGAA,36500
21,EPQPPPKAEPPPEPEPEPVPKAEAPPPPREEPPPPKKAPPPPKPEPTPAPAPT,38600
22,NEEEEEASDHEAEEPKPKKKRGRLAKEVDEEPEAPAPKKARGRPRKAVVKEED,24400
23,APATTAAATTSATPAVTSTLLAKPATTTTSTATPAPAAAGSLFGGAKAAGTTA,37000
24,TIALMGQDSIYLQVLAGDPNEAQSKNARRVYRLLKRGKHWVLVTLLLSNVIVN,27400
25,LWELLLNILKENGAKEKCILPCIVDFLPKNLVLVHCIHAYLHFRILVGLQCMT,33700

row,Sequence,transcriptional activation domain activity
1,LIFTSVHFLVFNIGDLLGRYLCLVPQLLLWDASKLLTLSLLRTFFIPLFLACN,38500
2,MHRPVCSGQSPPFFSPTSPIHFILPFLFSIFSFPHGAGVSMHIGRLVLLFFFF,59300
3,HTVGGKPSELMRSSEEDEDKICGAIGCDDTESAPSNACGRCKRVYYCSRACQT,42800
4,CYNLNLVFNWIIRCIISIFLVFMISFLPLFLQELVECGTWKAIWCLMKQFTSL,35400
5,MILWARAWISLFLFLYLLFYLFVFSLDIPPFLLYTFFIFILLLCVFACTYRHK,49200
6,MPRLCCSCCYTDSLYFMIIRDRFFWLLHNGIVVVSLISYIRCMMISSPLLVGH,48400
7,LAELVPKLDDSTVQYAYVRQEYANDSESTRVKFALIIWIGQSTKVMRKARVSI,52800
8,SGLAFRNFWIRRISFAGHLRNSNSALTPSRYFRLMSMAVVQMFWGLVVTSLYT,46800
9,EDGNGHGTHCSGTIAGKKYGVAKKAHVYAVKVLRSNGSGSMSDVVKGVEFAAT,42400
10,MQLDGVQLGFVGLTPFFRERHTECPVFILVVGHSCKLLLIMHIILVIHLLDCR,52900
11,RLAGGLRGLTGLEKEELRKRGWGLGWWMMRGAFYENITKAWIHTVTRKLKNKP,47300
12,LIHLMNIGQVSILFIHRFLYGLVPLFEITTCAFWPLLVSLWHLNFVLMYCIMF,66000
13,LCTQLLVKILVFSAYRFSLTVLNLVSYLTIDARMVSIVVLGKSLFPLLVFVLL,41000
14,MYLPKPGWLHVAGWLFILSLYLSIYIISYLISSYICNLCSFFCYLLLACILSF,49600
15,MRSSLPKLYRYGCLYWITGLCIFVYILYERRYYCCHNMPYFFHQPWFLCLSSL,68800
16,LGSLTFLDNAFQLDLEFLLSSNMTMPSPLDTCFDFLFPFTQMPSLEPCTFPPV,138000
17,KNEKADKAEKTEKTEQQQSSGARRNRRGRGGNRGGEGGKESKEGGRPAAAAKT,11200
18,LHFLSIDITSPFLPLDILPDLWATMWPWIRLIDSYWDSLPTLHEWFPSIQIYT,57500
19,ALKLLVDKVEDPKKNGPKFLKRAQLVVTGFNSQLKARSQRIGHFVNLLQVYLT,61600
20,GLRLIYVVNHGAWGKGPPLATIWVYVIVQLNLLPAVLSLVVIAGFVQYLNLKI,77200
21,MLLSLYLLTPFFIDMLLALHPFTLLCVHLPTCPCILLSCFRSYPCLSLWFPFS,45900
22,CDAPKLGLSGATLFEMIRFLDLYQGDWDSFLSQILVHAQIIRVLREALLILTV,65300
23,EHRVMSAKIKAGELIDNGRFVDEKSFEKPPIHFHLICDHNIRVLLIIIHHSLY,21300
24,LEHVVLLLYCISAVVLQTRYGSVPIGWIEERPITIGFTMAFSGALRDCLMYAA,56400
25,AVRLCRVTIKDITDPLPEGLRLSILLMSMDSLRLGRLYQVLDYMTIRSSLGKV,44600

row,Sequence,transcriptional activation domain activity
1,SEAESEAEAEAEEATEPEVSQEKPKRGRKKKEVEVEIKEKPSRKPAGRPKKEK,12300
2,KESTTPSGTIKEVEGGEKGEEGTVAKQNNGEKGLVKSAGRNFLVDERVLRQSF,40600
3,NFMNNEITASKIDDGNNSKPLSPGWTDQTAYNAFGITTGMFNTTTMDDVYNYL,120000
4,MYVISGFVFLIGLLLFVMLFDTTHLCVLVLFSFLYHSGSLCRPCHTPVILLYF,44000
5,AGRGGERRRRGLRRGRGRGAGAAARGRDGVRDDGERVAARVRVRVCARVCVCV,42600
6,MDTLSSSFAHILCIFFYLHPFLLFFSFSLFPFFVFATPATRTGVRLFYFFFLF,41600
7,YCDAKPGHSLVFAGHAGELELYLDKSCDADSIMTRENLGSLNRFVRLLLLLAK,38300
8,FLLTLLCMEVVLHFDYCVAISKANPDWSKYTPIQLSLLSYFNLHILWLKLLIP,63400
9,PPYALGYFGESDHGFCSLKVDLVYSNFMIYYLIVVPRLLVYFYCLLILFFIAM,61600
10,EGKEERGKGGEGEGGEGGEGERRDGKREGREGNGNRGGTEGKGERRKRKSQRE,28700
11,DEDAEGEDDPESAEPAKKRGRPPGSGKKRKPAAEKPKPQPGRGRGRPKKSEAA,18000
12,WETIGTILYLFYVFTFLRLRFFLLLFYLYELTTMISLTIYIILYTLLFYFSCY,41200
13,YHFALSYKRWINRVIIMIWCKLWWLRWCAFMQLFFRRNLRYNFWWRWIRVAGV,56700
14,MHFVWLYHPFAKYGDFYLILSFTYLRTITDCCSCCIMTTYGMLRIFPIFVILV,79100
15,LQRKNPEEQIAVNKVISLLYSNRESSYLEDTCPTENDYSDLLKGYINEIEKTL,33800
16,MSLLYYMVQSTTTMLLLTPPLCFTFFFIFFLLIFLFFIFYFLFLFYFINRDQS,47600
17,ENGRNLLRELLIFVAAWDLREEELYFKFMVKILESILVNGYLPYAYHAFREYD,62000
18,KRSKSPDSRHSSSRKRSRSRERKHKSSRKRSKSREGKIKKSKSEKHRSHKHKR,46300
19,MLLSAHFIDFFLLLLLLLLLHLIVPLIFILHHSLLFFLVLPIVCNYFFSWLPV,78400
20,GEGAGGRDSTKTGAKAAGTGSTASKQPSNSASGGGQGKKKQPSATSAAGRKIA,59000
21,FYFFFLLSLFSSSSPPLIFLALPLPFSISLTVSNPLAFPVAFFPLFSLSSLLN,65800
22,MPVGIVLQLIAAVQYHLYTAMLFTWTDYKTIFFPYLLKCCLWVWVHQLLCNVS,56900
23,NIFVLHWLPSLSIASLFHTSSSSSPLLAQFFALFRSFFLSIFLFSIVYILLLF,72200
24,KPHHKWIVPTPFASHAFHPVDGYFQSLPYHIFIFVFPMQRHLYLALFVAVNCW,41800
